Values joined by “and” are separate entries in the source; they are usually repeats but may differ in a detail not shown here. Equal values may be shown once.

The target of the assay is Biotin-labeled KRAS-G12D protein (UniProt P01116-2 1-169, limits assumed, biotin label (site not stated); loaded with BODIPY-GDP). Put plainly: cell-based or functional assay.
Turning to “cyclo(F-R-3Pal-cBuA-TyrOMe-Nle-NMeF-spiro44) (peptide)”, the SOS assay EC50 came to 7340 nM.

Regarding “cyclo(F-R-d3Pal-cBuA-Phe2F-Nle-NMe3Pal-amOBCH) (peptide)”, the SOS assay EC50 came to 6820 nM.

As for “cyclo(F-R-Phe4Gnc2-Nle-TyrOMe-Nle-NMeF-c3amCblc) (peptide)”, the SOS assay EC50 was 15.6 nM. The substance “cyclo(F-R-3Pal-cBuA-Pra-Nle-NMeF-aMeC1-C1Ac) (peptide)” came in with an SOS assay EC50 of 298 nM. The figure for “cyclo(F-R-3Pal-cBuA-TyrOMe-Nle-NMeF-amBCP) (peptide)” is 5.47 nM; for “cyclo(F-NO2IMNva-d3Pal-cBuA-Phe2F-Nle-NMe3Pal-amBCP) (peptide)” it is 242 nM. The figure for “cyclo(F-R-Phe4cMph-Nle-TyrOMe-Nle-NMeF-c3amCblc) (peptide)” is 60.6 nM. For “cyclo(F-DabN3-3Pal-Nle-Phe2F-Nle-NMe3Pal-c3amCb1c) (peptide)”, the SOS assay EC50 is 830 nM. The figure for “cyclo(F-R-3Pal-Nle-TyrOMe-Nle-NMeF-dbhcLeu) (peptide)” is 949 nM; for “cyclo(F-R-3Pal-cBuA-TyrOMe-AheNMeHag-aMeC-C1Ac) peak 1 (peptide)” it is 1560 nM and 324 nM; for “cyclo(Phe4F-R-4Pal-L-TyrOMe-Nva-NMeF-Cysteamine-C1Ac) (peptide)” it is 3010 nM.

In turn, “cyclo(F-R-3Pal-Nle-SerOMe-Nle-NMe3Pal-aMeC1-C1Ac) (peptide)” gave an SOS assay EC50 of 6390 nM. The figure for “cyclo(F-R-3Pal-cBuA-TyrOMe-RdHagNMeHag-aMeC-C1Ac) (peptide)” is 299 nM.

In the case of “cyclo(F-R-Phe4cPyrr-Nle-TyrOMe-Nle-NMeF-c3amCblc) (peptide)”, the SOS assay EC50 amounted to 35.3 nM. In the case of “cyclo(Phe4F-R-LysN3-Nle-Y-Nle-NMeF-Cysteamine-C1Ac) (peptide)” it was 3530 nM; in that of “cyclo(F-R-PyrimAla-cBuA-Phe2F-Nle-NMe3Pal-aMeC1-C1Ac) (peptide)”, 0.998 nM; in that of “cyclo(F-R-3Pal-cBuA-SerOMe-Nle-NMeF-aMeC1-C1Ac) (peptide)”, 943 nM. “cyclo(Phe4F-R-4Pal-L-TyrOMe-Nva-NMeF-dC5-C1Ac) (peptide)” showed an SOS assay EC50 of 70.2 nM. The figure for “cyclo(Phe4F-R-4Pal-L-TyrOMe-Nva-NMeF-dC6-C1Ac) (peptide)” is 369 nM; for “cyclo(Phe34F2-R-4Pal-L-TyrOMe-Nva-NMeF-dC1-C1Ac) (peptide)” it is 2770 nM; for “cyclo(1Nal-R~Phe4Gn-Nle-Y-Nle-NMeF-daMeC-C1Ac) (peptide)” it is 575 nM. With “cyclo(F-R-3Pal-cBuA-Phe24F2-Nle-NMe3Pal-aMeC1-C1Ac) (peptide)”, the SOS assay EC50 came out at 1.35 nM.

“cyclo(Y-hS-3Pal-cBuA-Phe2F-Nle-NMe3Pal-daMeC1-C1Ac) (peptide)” displayed an SOS assay EC50 of 6680 nM.

Take “cyclo(F-R-4CF33Pal-cBuA-Phe2F-Nle-NMe3Pal-aMeC1-C1Ac) (peptide)”: the SOS assay EC50 is 1.59 nM. In the case of “cyclo(Phe4F-R-4Pal-hIle-TyrOMe-Nva-NMeF-dC-C1Ac) (peptide)” it was 2060 nM. The figure for “cyclo(F-R-3Pal-cBuA-Phe2F-Nle-NMeF-aMeC1-C1Ac) (peptide)” is 2 nM; for “cyclo(F-R-3Pal-Nle-deHLeu-Nle-NMe3Pal-aMeC1-C1Ac) (peptide)” it is 526 nM; for “cyclo(C1Ac-F-R-3Pal-cBuA-Hag-Nle-NMe3Pal-C) (peptide)” it is 9150 nM. In the case of “cyclo(NMeF-NMeNvalmid-3Pal-Nle-Phe2F-Nle-NMe3Pal-c3amCblc) (peptide)” it was 1220 nM. “cyclo(F-R-3Pal-Nle-V-Nle-NMe3Pal-aMeC1-C1Ac) (peptide)” had an SOS assay EC50 of 329 nM. The figure for “cyclo(F-R-3Pal-Nle-Phe2F-Nle-NMe3Pal-aMeC7-C1Ac) (peptide)” is 728 nM; for “cyclo(Phe4F-R-4Pal-Nle-TyrOMe-Nle-NMeF-Cysteamine-C1Ac) (peptide)” it is 432 nM. Regarding “cyclo(F-baceNva-d3Pal-cBuA-Phe2F-Nle-NMe3Pal-amBCP) (peptide)”, the SOS assay EC50 came to 7.56 nM.

On to “cyclo(F-OmN3-3Pal-Nle-Phe2F-Nle-NMe3Pal-c3amCblc) (peptide)”, for which the SOS assay EC50 turned out to be 5590 nM. Substance “cyclo(Phe4NH2-Om-3Pal-cBuA-TyrOMe-Nle-NMe3Pal-daMeC1-C1Ac) (peptide)” had an SOS assay EC50 of 1060 nM. The figure for “cyclo(F-R-3Pal-Nle-TyrOMe-Nle-NMeF-13amCb1c) (peptide)” is 186 nM.

As for “cyclo(FLac-NMeA~PyrimAla-cPrA-3Pal6F-hL-NMeF-amBCP) (peptide)”, the SOS assay EC50 is 3.72 nM. In the case of “cyclo(Phe3F-R-4Pal-L-TyrOMe-Nva-NMeF-dC1-C1Ac) (peptide)” it was 3750 nM.

“cyclo(F-NH2IMNva-d3Pal-cBuA-Phe2F-Nle-NMe3Pal-amBCP) (peptide)”: the SOS assay EC50 stood at 1.14 nM. In the case of “cyclo(F-R-3Pal-Nle-TyrOMe-Nle-NMeF-cBuTE-C1Ac) (peptide)” it was 3440 nM.

“cyclo(NMeF-NMeNvaImid-3Pal-Nle-Phe2F-Nle-NMe3Pal-tamcPr) (peptide)”: the SOS assay EC50 was found to be 7650 nM.

In turn, “cyclo(F-R-3Pal-cBuA~TyrOMe-Nle-NMeF-spiro54) (peptide)” showed an SOS assay EC50 of 656 nM.

Substance “cyclo(F-MorNva-3Pal-cBuA-Phe2F-Nle-NMe3Pal-amBCP) (peptide)” registered an SOS assay EC50 of 432 nM.

Turning to “cyclo(F-R~3Pal-cBuA-Phe26F2-Nle-NMe3Pal-aMeC1-C1Ac) (peptide)”, the SOS assay EC50 stood at 4.6 nM. In turn, “cyclo(F-R-d3Pal-cBuA-TyrOMe-Nle-NMeF-Smcysteamine-C1Ac) (peptide)” came in with an SOS assay EC50 of 37.8 nM. The figure for “cyclo(F-R-3Pal-Nle-all-Nle-NMe3Pal-aMeC1-C1Ac (peptide)” is 946 nM; for “cyclo(Y-Orn-3Pal-cBuA-TyrOMe-Nle-NMe3Pal-daMeC1-C1Ac) (peptide)” it is 659 nM. In the case of “cyclo(F-R-3Pal-cBuA-TyrOMe-124triazole-dC~C1Ac) (peptide)” it was 2820 nM; in that of “cyclo(F-R-3Pal-cBuA-AbuF3-Nle-NMeF-aMeC1-C1Ac) (peptide)”, 861 nM; in that of “cyclo(F-R-3Pal-Nle-TyrOMe-Nle-NMeF-bhcLeu) (peptide)”, 193 nM. The figure for “cyclo(F-NMeR-3Pal-Nle-TyrOMe-Nle-NMeF-c3amCblc) (peptide)” is 96.2 nM; for “cyclo(F-NMeDabN3-3Pal-Nle-Phe2F-Nle-NMe3Pal-c3amCb1c) (peptide)” it is 753 nM; for “cyclo(F-R-3Pal-Nle-I-Nle-NMe3Pal-aMeC1-C1Ac) (peptide)” it is 642 nM. Turning to “cyclo(F-R-3Pal-Nle-Phe2F-Nle-NMe3Pal-aMeC-C1Ac) (peptide)”, the SOS assay EC50 was determined as 370 nM. In the case of “cyclo(TyrOMe-Orn~3Pal-cBuA-Phe2F-Nle-NMe3Pal-daMeC1-C1Ac) (peptide)” it was 2130 nM; in that of “cyclo(F-6Quin4NH2-Phe4Gn-L-TyrOMe-Nle-NMeF-C1-C1Ac) (peptide)”, 7790 nM. In the case of “cyclo(dF-R-3Pal-Nie-TyrOMe-Nle-NMeF-c3amCblc) (peptide)” it was 222 nM; in that of “cyclo(FLac-NMeA-PyrimAla-cPrA-4Pal2F-hL-NMeF-amBCP) (peptide)”, 2.69 nM.

Turning to “cyclo(F-IPG-d3Pal-cBuA-Phe2F-Nle-NMe3Pal-amBCP) (peptide)”, the SOS assay EC50 was determined as 1230 nM. “cyclo(F-R-3Pal-cBuA-TyrOMe-HagNMeHag-daMeC-C1Ac) (peptide)” showed an SOS assay EC50 of 238 nM. In the case of “cyclo(F-NMeNvalmid-3Pal-Nle-Phe2F-Nle-NMe3Pal-tamcPr) (peptide)” it was 272 nM; in that of “cyclo(F-R-hS-cBuA-Phe2F-Nle-NMeF-aMeC1-C1Ac) (peptide)”, 503 nM; in that of “cyclo(F-R-d3Pal-cBuA-Phe2F-Nle-NMe3Pal-amBCP) (peptide)”, 3.19 nM. Take “cyclo(NMeF-NMeDabN3-3Pal-Nle-Phe2F-Nle-NMe3Pal-c3amCblc) (peptide)”: the SOS assay EC50 worked out at 8470 nM.

Turning to “cyclo(F-R-3Pal-cBuA-TyrOMe-AheNMeAhe-aMeC-C1Ac) (peptide)”, the SOS assay EC50 was 900 nM. The figure for “cyclo(F-NMeNvalmid-3Pal-Nle-Phe2F-LysN3-NMe3Pal-c3amCblc) (peptide)” is 612 nM; for “cyclo(F-NMeDabN3-3Pal-Nle-Phe2F-Nle-NMe3Pal-amBCP) (peptide)” it is 267 nM; for “cyclo(NMeF-NMeNvaImid-Phe4cPyrr-Nle-Phe2F-Nle-NMe3Pal-amBCP) (peptide)” it is 3220 nM. The figure for “cyclo(F-R-Phe4Gn-Nle-TyrOMe-Nle-NMeF-cBuAc) (peptide)” is 419 nM; for “cyclo(F-R-4F3Pal-cBuA-Phe2F-Nle-NMe3Pal-daMeC1-C1Ac) (peptide)” it is 1.26 nM. The figure for “cyclo(F-R-3Pal-Nle-TyrOMe-Nle-NMeF-cBuAc) (peptide)” is 117 nM; for “cyclo(C1Ac-F-R-3Pal-cBuA-Ape-Nle-NMe3Pal-C) (peptide)” it is 7270 nM; for “cyclo(F-R-3Pal-Nle-TyrOMe-Nle-NMeF-cHxclacid4NH2) (peptide)” it is 256 nM. As to “cyclo(F-ArgMeMe-Phe4Gn-L-TyrOMe-Nle-NMeF-dC1-C1Ac) (peptide)”, the SOS assay EC50 was found to be 1160 nM. In the case of “cyclo(NMeF-NMeNvalmid-3Pal-dNle-Phe2F-Nle-NMe3Pal-c3amCblc) (peptide)” it was 1460 nM; in that of “cyclo(F-R-d3Pal-cBuA-Phe2F-Nle-NMe3Pal-BCP) (peptide)”, 1140 nM; in that of “cyclo(F-R-hK-Nle-Bip-hY-NMeF-Cysteamine-C1Ac) (peptide)”, 4490 nM. The figure for “cyclo(F-Nva-Phe4Gn-L-TyrOMe-Nle-NMeF-dC1-C1Ac) (peptide)” is 4320 nM.

For the origin of these results see patent US20260001914A1, “MACROCYCLIC PEPTIDES TARGETING KRAS” (Merck Sharp & Dohme LLC, priority 2022, published 2026).
